Assay results taken from US20140274766A1, “METHODS OF USING F-SPONDIN AS A BIOMARKER FOR CARTILAGE DEGENERATIVE CONDITIONS AND BONE DISEASES” (priority 2009, published 2014).

Assays:
[1] = system: chick chondrocytes; assay: Alkaline phosphatase (AP) activity in RA-stimulated chick chondrocyte cultures; format: cell-based; details: F-Spondin 1 ug/ml with RA, 3 days
Method: FIG. 16. Inhibition of F-spondin decreases AP activity in RA stimulated cultures. Chick chondrocytes were treated with RA at 100 nm for 5 days with and without F-spondin antibodies and AP activity assessed. Antibodies with specificities to the spondin domain (medium grey) and TSR domain (black) inhibited AP activity compared to ctrl (noAb) (light grey). Note the greater inhibitory effect of the TSR domain antibody. * p=<0.05 versus no ab ctrl.
FIG. 17. The pro-maturation effect of F-spondin is not inhibited following neutralization of TGF-β activity by coculture with Latency Associated Peptide (LAP). AP activity was determined in chick chondrocyte cultures by ELISA following RA stimulation for 3 days. Cultures were either ctrl (RA only) or RA with either F-Spondin (1 ug/ml) or LAP (10 or 100 ng/ml), or RA with F-Spondin (1 ug/ml) and LAP (10 or 100 ng/ml) in combination.
FIG. 18. Blocking αvβ3 integrin inhibits the promaturation effect of F-spondin. Chondocyte cultures were transfected as previously and stimulated with RA for 3 days in the presence of IgG control, or αvβ3 blocking antibodies prior to assay for AP activity. Inhibition of αvβ3 led to a ˜50% suppression of F-spondin-induced AP activity but had no effect on baseline AP activity (vector ctrl).
FIGS. 23A, 23B and 23C. F-spondin regulation of chondrocyte maturation requires the TSR domain. (A) Schematic representation of F-spondin protein domains and plasmid constructs encoding either full length (FS1) or TSR domain truncated (FS6) cDNAs. (B) Relative AP activity of FS or pcDNA3 control transfected cultures after 5 days treatment. (C) Relative AP activity following inhibition of F-spondin protein domains. Upper sternal chondrocytes were stimulated with 0, 10, 35 or 100 nM retinoic acid (RA) for 5 days in culture. […]
We next determined that the pro-maturation effect of F-spondin is not inhibited following neutralization of TGF-β activity by coculture with Latency Associated Peptide (LAP) (R&D Systems, Cat No 246-LP/CF). […] AP activity was determined in chick chondrocyte cultures by ELISA following RA stimulation for 3 days. […]

[2] = system: embryonic mouse tibia; assay: Embryonic mouse tibia organ culture ex vivo (growth, staining, histology)
Method: FIGS. 20A, 20B and 20C. F-spondin regulates bone growth and morphology in mouse tibial organ cultures. Longitudinal growth and histological analysis of embryonic mouse tibia after 7 days of culture ex vivo. Tibia were treated with recombinant F-spondin FS (1 mg/ml) or an anti-F-spondin, TSR-domain specific (R1) antibody. (A) Representative images of whole tibia stained with alcian blue (proteoglycans) and alizarin red (mineral). (B) Tibial growth was measured after 7 days of organ culture and expressed as percent of original length at day 0. Average growth for control cultures has been set to 100% (C) H&E stained sections of corresponding limbs after 7 days treatment. Arrows indicate hypertrophic chondrocytes in the […] growth plate.
All animal experiments were conducted according to the guidelines of the Institutional Animal Care and Use Committee (IACUC) of New York University. […] After 12 hours, tibiae were placed in 24-well Falcon plates and initial longitudinal length was measured using a stereomicroscope. […] (purchased from R&D Systems, Minneapolis, Minn. (Cat No AF3135). Media was changed every 24 hours beginning on day one, and tibial length was measured again at the end of one week. The results were expressed as percentage changes in length relative to day one. […]

B1: F-spondin: 110 kDa, secreted, heparin-binding extracellular matrix glycoprotein; used as recombinant protein (R&D systems) or transfected-cell supernatant (protein, UniProt Q9HCB6 29-807, looked up)
Spondin-1: FSDETLDKVPKSEGYCSRILRAQGTRREGYTEFSLRVEGDPDFYKPGTSYRVTLSAAPPSYFRGFTLIALRENREGDKEEDHAGTFQIIDEEETQFMSNCPVAVTESTPRRRTRIQVFWIAPPAGTGCVILKASIVQKRIIYFQDEGSLTKKLCEQDSTFDGVTDKPILDCCACGTAKYRLTFYGNWSEKTHPKDYPRRANHWSAIIGGSHSKNYVLWEYGGYASEGVKQVAELGSPVKMEEEIRQQSDEVLTVIKAKAQWPAWQPLNVRAAPSAEFSVDRTRHLMSFLTMMGPSPDWNVGLSAEDLCTKECGWVQKVVQDLIPWDAGTDSGVTYESPNKPTIPQEKIRPLTSLDHPQSPFYDPEGGSITQVARVVIERIARKGEQCNIVPDNVDDIVADLAPEEKDEDDTPETCIYSNWSPWSACSSSTCDKGKRMRQRMLKAQLDLSVPCPDTQDFQPCMGPGCSDEDGSTCTMSEWITWSPCSISCGMGMRSRERYVKQFPEDGSVCTLPTEETEKCTVNEECSPSSCLMTEWGEWDECSATCGMGMKKRHRMIKMNPADGSMCKAETSQAEKCMMPECHTIPCLLSPWSEWSDCSVTCGKGMRTRQRMLKSLAELGDCNEDLEQVEKCMLPECPIDCELTEWSQWSECNKSCGKGHVIRTRMIQMEPQFGGAPCPETVQRKKCRIRKCLRNPSIQKLRWREARESRRSEQLKEESEGEQFPGCRMRPWTAWSECTKLCGGGIQERYMTVKKRFKSSQFTSCKDKKEIRACNVHPC
With B1 the AP activity [1] was “increase”, the alizarin red staining ([2]; 7 days culture, compared to untreated limbs) was “slight increase” and the “number of hypertrophic chondrocytes (H&E)” value ([2]; growth plate cartilage adjacent to mineralized core) was “increased numbers”.
